From article PMC12564070, “Rapid and Quantitative Detection of TNF-α in Human Tears Using a Portable Electrochemiluminescence-Based Device”

Columns and labels:
TNF-alpha = TNF-alpha (Homo sapiens, UniProt P01375 77-233); experiment: electrochemiluminescence aptasensor (Apt-VSM/ITO electrode); linear 0.1-200 pg/mL, LOD 0.089 pg/mL; Ru luminophore/TPrA; Aptamer immobilized on VSM/ITO electrode, 0.5% BSA block, 0.1 M PBS rinse; binding buffer, pH and temperature not given in the material; settings: protein: commercial; chain copies: 3
IL-6 = IL-6 (UniProt P05231 30-212); experiment: electrochemiluminescence aptasensor (Apt-VSM/ITO electrode); 1 ng/mL IL-6, interference test; negligible ECL variation; Aptamer immobilized on VSM/ITO electrode, 0.5% BSA block, 0.1 M PBS rinse; binding buffer, pH and temperature not given in the material
IL-6, sequence (P05231 30-212): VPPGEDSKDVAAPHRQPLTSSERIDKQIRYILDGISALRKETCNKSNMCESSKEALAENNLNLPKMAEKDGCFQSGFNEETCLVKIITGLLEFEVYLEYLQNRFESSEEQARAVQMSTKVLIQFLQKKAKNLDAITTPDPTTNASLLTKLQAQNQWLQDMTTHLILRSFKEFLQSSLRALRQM

TNF-alpha, sequence (P01375 77-233): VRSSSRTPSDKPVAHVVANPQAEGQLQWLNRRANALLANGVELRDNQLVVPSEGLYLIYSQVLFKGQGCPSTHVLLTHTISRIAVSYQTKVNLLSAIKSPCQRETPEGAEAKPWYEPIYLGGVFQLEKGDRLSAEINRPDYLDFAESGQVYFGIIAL

B1: TNF-alpha aptamer (ssDNA)
DNA: GCGCCACTACAGGGGAGCTGCCATTCGAATAGGTGGGCCGC
modifications: amino-modified (end not stated), coupled to GPTMS epoxy groups on VSM/ITO electrode
binding result (TNF-alpha): binds | binding result (IL-6): no binding
